This passage reports Km and kcat results from PMC4053514, “Structural Diversity in the Dandelion (Taraxacum officinale) Polyphenol Oxidase Family Results in Different Responses to Model Substrates” (PLoS ONE, 2014).

Like-named read-outs stand apart in the source and are kept apart here.

What all share (test): spectrophotometric quinone formation, Michaelis-Menten fit
What all share (format): biochemical, Taraxacum officinale

Data set [1] deals with T1, PPO-1.
T1 construct: mature protein without transit peptide, N-terminal Strep2 tag with enterokinase site spacer; E. coli Rosetta2 (DE3)
The following applies: 50 mM acetate-phosphate, optimal pH (5.5), 25 °C, optimal SDS concentration as activator, O2 co-substrate. The text has this: spectrophotometric quinone formation, Michaelis-Menten fit on PPO-1

Substrate in data set [2]: NCCc1ccc(O)c(O)c1
The conditions noted are these: 50 mM acetate-phosphate, optimal pH (5.0), 25 °C, optimal SDS concentration as activator, O2 co-substrate. The text has this: spectrophotometric quinone formation, Michaelis-Menten fit on PPO-6

Substrate in data set [3]: NCCc1ccc(O)c(O)c1
The conditions noted are these: 50 mM acetate-phosphate, optimal pH (5.0), 25 °C, optimal SDS concentration as activator, O2 co-substrate. The text has this:
spectrophotometric quinone formation, Michaelis-Menten fit on PPO-7
The source holds these as a separate data set.

Substrate in data set [4]: NCCc1ccc(O)c(O)c1
The conditions noted are these: 50 mM acetate-phosphate, optimal pH (6.0), 25 °C, optimal SDS concentration as activator, O2 co-substrate. The source says:
spectrophotometric quinone formation, Michaelis-Menten fit on PPO-2

`O=C(O)Cc1ccc(O)c(O)c1` [dihydroxyphenylacetic acid, 2-(3,4-dihydroxyphenyl)acetic acid]: the Km in data set [1] (read-out: substrate / Dopac) was found to be 4950 ± 1670 µM.
Consider `Oc1ccccc1O` [catechol, benzene-1,2-diol], for which the Km in data set [1] (read-out: substrate / CAT) was determined as 1190 ± 510 µM.
Turning to `N[C@@H](Cc1ccc(O)c(O)c1)C(=O)O` [dihydroxyphenylalanine, (S)-2-amino-3-(3,4-dihydroxyphenyl)propanoic acid], the Km in data set [1] (read-out: substrate / L-Dopa) amounted to 8070 ± 2140 µM.
As for `Cc1ccc(O)c(O)c1` [4-methylcatechol, 4-methylbenzene-1,2-diol], the Km in data set [1] (read-out: substrate / 4MC) came out at 1060 ± 180 µM.
In the case of `NCCc1ccc(O)c(O)c1` [dopamine, 4-(2-aminoethyl)benzene-1,2-diol], the Km in data set [1] (read-out: substrate / DA) was 780 ± 140 µM.

B1: PPO-6 (Taraxacum officinale) (protein)
chain: DPITTPDISTCVASTKGFQPKNAVRTNACCPPTLSKTVKEFVFPNDRATRIRPAAHRASPEYIAKYKAAIQKMRDLEDDDPHSFVSQAKIHCAYCNGGFTQDKHPDKELQIHNSWLFFPFHRWYLYFYERILGKLIDDPTFAIPYWNWDNPAGMSLPDFFEEGGKANPAFDAYRNSSHLAPAIADLDYDGTEKNYTCIKQLSVNLGAMNKQMIRNAGDWKSFFGGEYRAGSDPIGNKDPSVGSVEAGCHTAIHRWVGNSRLPNGEDMGNFYSAGYDPVFYVHHANVDRMWKVWKDLGIRGHIEPPDNDWRNASYVFYDENKELVRVYNKDCVRLEKLKYDYQFAPIPWKNSRPVARTKKSNIALKSVGTVKQAQDSKFPLKLDKTTKVLVKRPATNRSKEDKENANEVLLIKGVVFNGEKFVKFDVFVNDKDDVTASTAEESEFAGSFAQLPHNHGDKMLMTSSARFGLTELLEDIDAEDDESILVTLVPKVGCEEVTIGEIKVELVPIEE
notes: mature protein without transit peptide, N-terminal Strep2 tag with enterokinase site spacer; E. coli Rosetta2 (DE3); disulfide-linked tetramer
For B1, in data set [2], the Km turned out to be 5620 ± 1140 µM and the kcat came out at 61.7 ± 10.6 s⁻¹.

B2: PPO-7 (Taraxacum officinale) (protein)
chain: APITTPDISTCIPSESGFNTEDSVRSNQCCPPATSSTIPKEFVFPKDTTTRIRPAAHRATPEYVAKYKAAIQAMRDLPDDHPHSFVSQAKIHCAYCNGGYTQVASGFPDKMLQVHNSWLFFPFHRWYLYFYERILGKLIDDPTFALPYWNWDHPAGMTLPAFFETDGKRNPVFDAYRNVTHVTPAAIVDLDYNGSDSGAPCLQQINTNLTAMYKQMVSNAADPLSFFGGVYKAGDDPFGNGDPSVGSVEAGCHTAVHRWVGNPRMMNTEDMGNFYSAGYDPAFYVHHANVDRMWKVWKDLGIPGHSEPTDPDWLNASFVFYDENEQLVRVYNKDCVNLENLKYDYELSPLPWLKNRPVPHTPKPVDNAAKPAIKLPEVKFPVKLDKTVKVYVKRPVKKRGKAEKDKVSEQLVLKGIKFNSTKFVKVDVFVNDQDDAPAILPSESEFVGSFAQLPHGRSGRGRGRGHGHSELMTSAARFGLTELLEDIGAEDDEYILVTLVPKAGSEDVTVEEITVELVPVNP
notes: mature protein without transit peptide, N-terminal Strep2 tag with enterokinase site spacer; E. coli Rosetta2 (DE3); tetramer
As to B2, in data set [3], the Km is 4490 ± 2260 µM and the kcat is 22.6 ± 2.5 s⁻¹.

B3: PPO-2 (Taraxacum officinale) (protein)
chain: DPIMAPDLTKCGPADLPQGAVATNCCPPFTKNIIDFKLPPPSTNLRVRPAAHLANKDYIAKFNKAIELMKALPDDDPRSFKQQAAVHCAYCDGAYDQVGFPDLDLQVHNSWLFLPFHRHYLYFFEKICGKLINDPNFAIPFWNWDTPDGMTIPAIYANKNSQLYDALRDGKHQPPSLVDLDFNGEDENLSKSKQTSTNLTIMYRQMVSSSKTASLFMGSPYRAGDEANPGGGSLESIPHGPVHIWTGDRNQPNGEDMGNFYSAARDPIFYAHHANIDRMWSVWKTLGGRRNDFTDKDWLDSAFLFYDENAELVRVKVRDALDSKKLGYVYQDVGIPWLETKPEPRLKRALSKIKKKLAVARADEHIPFAKDVFPATLDKVIKVLVPRPKKSRSKKQKDAEEEILVIEGIEVKRDEFVKFDVFVNDEDDGMRATADKTEFAGSFVNVPHKHKHGKSVKTRLRLGISELLDDLGADDDDNVLVTLVPKNKGDEVSIKGMKIEYED
notes: mature protein without transit peptide, N-terminal Strep2 tag with enterokinase site spacer; E. coli Rosetta2 (DE3)
As to B3, in data set [4], the Km is 940 ± 310 µM and the catalytic constant (kcat) stood at 59.5 ± 13.7 s⁻¹.

The term kcat denotes the maximal rate divided by the concentration of active sites.
